# Results reported in article PMC3251506.
# Target: Epstein-Barr virus glycoprotein H / glycoprotein L complex (gH/gL), wild type (Epstein-Barr virus) (UniProt P03231)
# Assay: CELISA
substance,measurement,value
"Epstein-Barr virus glycoprotein 42 (gp42), wild type, soluble form in medium (from UniProt P03205) (natural protein)",percent decrease of gH/gL binding to HEK 293 cells by soluble gp42,50%
